Measurements from patent US20070004909A1 (MacroGenics, published 2007).
Read-outs that look alike come from different tables or passages of the source. Blank lines part the entries; values can stand above or below the binder they belong to.

Tests used:
soluble CD16A (sCD16A) [1] = target: T1, soluble CD16A (sCD16A) (UniProt P08637 17-208, limits assumed); assay: sandwich ELISA: sCD32B coated on the plate, normalised conditioned medium titrated, HRP-conjugated sCD16A as the probe; OD450
T1 construct: extracellular domain; Amine-coupled to the chip in SPR; biotin- or HRP-conjugated as the probe in the sandwich ELISAs; also called FcγRIIIA; sCD16A-Biotin
Method: The binding of diabody molecules comprising Fc domains and engineered disulfide bonds between the ‘lighter’ and ‘heavier’ polypeptide chains to sCD32B and sCD16A was assayed in a sandwich ELISA. Diabodies assayed were produced by 3 recombinant expression systems: expressing constructs 1 and 10, expressing constructs 1 and 9, and expressing constructs 11 and 12, respectively. sCD32B was used as the target protein. The secondary probe was HRP conjugated sCD16A. Binding of h3G8 was used as control.
(§1) ELISA: The binding of diabody molecules secreted into the medium was assayed by sandwich ELISA as described, supra. Unless indicated, CD32B was used to coat the plate, i.e., as the target protein, and HRP-conjugated CD16 was used as the probe.

soluble CD16A (sCD16A) [2] = target: T1, soluble CD16A (sCD16A); assay: SPR (BIAcore 1000); receptor amine-coupled (~1000 RU), analyte 6.25-200 nM; units not printed (koff/kon implies nM)
Method: (§2) The binding of h2B6-h3G8 CBD, h2B6 CMD and h3G8 CMD to sCD16A, and sCD32B was assayed by SPR analysis. h3G8 scFv was also tested as a control. (A) Binding of to h3G8 CMD sCD16A; (B) Binding of h2B6-h3G8 CBD to sCD16A; (C) Binding of h3G8 scFv to sCD16A; (D) Binding of h2B6 CMD to sCD32B; and (E) Binding of h2B6-h3G8 CBD to sCD32B. Diabodies were injected at concentrations of 6.25-200 nM over receptor surfaces at a flow rate of […] for 180 sec.
(§3) SPR analysis was also used to estimate the kinetic and equilibrium constants of the CMDs and h2B6-h3G8 CBD to sCD16 and/or sCD32B. Results were compared to the same constants calculated for an h3G8 scFV. FIGS. 7A-E show the graphical results of the SPR analysis. The kinetic on and off rates, as well as the equilibrium constant, calculated from the results depicted in FIG. 7 are provided in Table 13.

soluble CD32B (sCD32B) = target: T2, soluble CD32B (sCD32B) (UniProt P31994 43-217, limits assumed); assay: as above
T2 construct: extracellular domain; As immobilised on the BIAcore chip; also called FcγRIIB
T2 sequence (looked up): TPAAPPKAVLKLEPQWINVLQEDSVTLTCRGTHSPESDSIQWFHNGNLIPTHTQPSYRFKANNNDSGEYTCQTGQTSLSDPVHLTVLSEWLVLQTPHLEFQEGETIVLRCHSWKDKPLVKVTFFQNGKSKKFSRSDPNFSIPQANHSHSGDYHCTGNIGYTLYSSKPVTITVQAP
Method: as §2, §3

soluble CD32A (sCD32A) = target: T3, soluble CD32A (sCD32A) (UniProt P12318 34-217, limits assumed); assay: SPR (BIAcore), sCD32A (negative control receptor) immobilised, diabody injected for 60 s
T3 construct: extracellular domain; Negative control surface in SPR; also called control receptor
T3 sequence (looked up): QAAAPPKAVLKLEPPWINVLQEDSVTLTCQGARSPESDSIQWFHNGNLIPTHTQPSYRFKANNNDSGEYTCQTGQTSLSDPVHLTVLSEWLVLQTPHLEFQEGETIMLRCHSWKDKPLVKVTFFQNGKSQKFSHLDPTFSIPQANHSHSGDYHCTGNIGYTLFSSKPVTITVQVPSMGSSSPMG
Method: The binding of h2B6-h3G8 CBD, h2B6 CMD and h3G8 CMD to sCD16A, sCD32B, and sCD32A (negative control) was assayed by SPR analysis. h3G8 scFv was also tested as a control. (A) Binding to sCD16; (B) Binding to sCD32B and (C) Binding to sCD32A. Diabodies were injected at a concentration of 100 NM, and scFv at a concentration of 200 nM, over receptor surfaces at a flow rate of […] for 60 sec.

sCD32B-Ig = target: T4, sCD32B-Ig (UniProt P31994 43-217); assay: sandwich ELISA: sCD32B-Ig coated on the plate, diabody titrated, detected with labelled sCD16A; OD450
T4 construct: extracellular domain; also called CD32B (ELISA coat); sCD32B (target protein of the sandwich ELISAs); not shown: Ig part of sCD32B-Ig is not described
T4 sequence (looked up): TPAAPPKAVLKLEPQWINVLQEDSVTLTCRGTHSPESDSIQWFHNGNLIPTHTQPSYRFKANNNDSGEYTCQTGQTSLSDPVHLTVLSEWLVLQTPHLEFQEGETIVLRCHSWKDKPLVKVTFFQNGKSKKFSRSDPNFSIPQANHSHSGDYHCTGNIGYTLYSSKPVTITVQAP
Method: The binding of h2B6-h3G8 CBD to sCD32B and sCD16A was assayed in a sandwich ELISA. sCD32B was used as the target protein. The secondary probe was HRP conjugated sCD16A. h3G8 CMD, which binds CD16A, was used as control.
ELISA: The binding of eluted and purified diabodies was characterized by ELISA assay, as described in 5.4.2. 50 ul/well of a 2 ug/ml solution of sCD32B-Ig was coated on 96-well Maxisorp plate in Carbonate buffer at 4° C. over night. The plate was washed three times with PBS-T (PBS, 0.1% Tween 20) and blocked by 0.5% BSA in PBS-T for 30 minutes at room temperature. Subsequently, h2B6-h3G8 CBD, h2B6 CMD, or h3G8 CMD were diluted into the blocking buffer in a serial of two-fold dilutions to generate a range of diabody concentrations, from 0.5 μg/ml to 0.001 μg/ml. The plate was then incubated at room temperature for 1 hour. After washing with PBS-T three times, 50 ul/well of 0.2 ug/ml sCD16A-Biotin was added to each well. The plate was again incubated at room temperature for 1 hour. After washing with PBS-T three times, 50 ul/well of a 1:5000 dilution of HRP conjugated streptavidin (Amersham Pharmacia Biotech) was used for detection. The HRP-streptavidin was allowed to incubate for 45 minutes at room temperature. […] The OD450 nm was read by using a 96-well plate reader and SOFTmax software, and results plotted using GraphPadPrism 3.03 software. […]

soluble CD16A (sCD16A) [3] = target: T1, soluble CD16A (sCD16A); assay: sandwich ELISA: sCD32B coated on the plate, normalised conditioned medium titrated, HRP-conjugated sCD16A as the probe; OD450; remark: listed apart in the source
Method: The binding of diabody molecules comprising Fc domains to sCD32B and sCD16A was assayed in a sandwich ELISA. Diabodies assayed were produced by 4 recombinant expression systems: cotransfection of pMGX669+pMGX674, expressing constructs 1 and 6, respectively; cotransfection of pMGX669+pMGX678, expressing constructs 2 and 8, respectively; cotransfection of pMGX677+pMGX674, expressing constructs 7 and 6, respectively; and cotransfection of pMGX677+pMGX678, expressing constructs 7 and 8, respectively. sCD32B was used as the target protein. The secondary probe was HRP conjugated sCD16A.
as §1

T1 sequence (P08637 17-208 limits assumed): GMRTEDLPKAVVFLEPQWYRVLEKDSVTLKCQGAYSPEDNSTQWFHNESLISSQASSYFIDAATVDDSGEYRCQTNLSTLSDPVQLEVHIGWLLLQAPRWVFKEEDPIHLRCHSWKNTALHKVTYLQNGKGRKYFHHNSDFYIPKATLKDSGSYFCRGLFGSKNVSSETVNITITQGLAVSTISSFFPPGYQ

B1: diabody of constructs 1 and 9 (pMGX0669+pMGX0719), N-terminal hinge/Fc (bispecific antibody, human IgG1)
chain 1: EIVLTQSPDFQSVTPKEKVTFTCRTSQSIGTNIHWYQQKPDQSPKLLIKEVSESISGVPSRFSGSGSGTDFTLTINSLEAEDAATYYCQQSNTWPFTFGGGTKVEIKGGGSGGGGQVTLRESGPALVKPTQTLTLTCTFSGFSLSTSGMGVGWIRQPPGKALEWLAHIWWDDDKRYNPALKSRLTISKDTSKNQVVLTMTNMDPVDTATYYCAQINPAWFAYWGQGTLVTVSSLGGC
chain 2: not shown
notes: Designed as tetravalent IgG-like diabody; Tested as normalized conditioned medium; also called constructs 9 and 1; constructs 9+1
binding result (soluble CD16A (sCD16A) [1]): binds

B2: h2B6-h3G8 covalent bispecific diabody (CBD) (bispecific antibody)
chain 1: EIVLTQSPDFQSVTPKEKVTFTCRTSQSIGTNIHWYQQKPDQSPKLLIKEVSESISGVPSRFSGSGSGTDFTLTINSLEAEDAATYYCQQSNTWPFTFGGGTKVEIKGGGSGGGGQVTLRESGPALVKPTQTLTLTCTFSGFSLSTSGMGVGWIRQPPGKALEWLAHIWWDDDKRYNPALKSRLTISKDTSKNQVVLTMTNMDPVDTATYYCAQINPAWFAYWGQGTLVTVSSLGGC
chain 2: DIVMTQSPDSLAVSLGERATINCKASQSVDFDGDSFMNWYQQKPGQPPKLLIYTTSNLESGVPDRFSGSGSGTDFTLTISSLQAEDVAVYYCQQSNEDPYTFGQGTKLEIKGGGSGGGGQVQLVQSGAEVKKPGASVKVSCKASGYTFTNYWIHWVRQAPGQGLEWIGVIDPSDTYPNYNKKFKGRVTMTVVVSTSTAYMELRSLRSDDTAVYYCARNGDSDYYSGMDYWGQGTTVTVSSLGGC
notes: also called h2B6-h3G8 CBD; h2B6-h3G8 diabody
Kd (soluble CD16A (sCD16A) [2]): 22.7 nM
Kd (soluble CD32B (sCD32B)): 15 nM
binding result (soluble CD32A (sCD32A)): no binding (tested: 100 nM)
EC50 (read off the curve) (sCD32B-Ig): ~0.04 µg/mL

B4: diabody of constructs 11 and 12, C-terminal hinge-Fc and engineered VL/VH cysteines (bispecific antibody, human IgG1)
chain 1: not shown
chain 2: DIVMTQSPDSLAVSLGERATINCKASQSVDFDGDSFMNWYQQKPGQPPKLLIYTTSNLESGVPDRFSGSGSGTDFTLTISSLQAEDVAVYYCQQSNEDPYTFGQGTKLEIKGGGSGGGGQVQLVQSGAEVKKPGASVKVSCKASGYTFTNYWIHWVRQAPGQCLEWIGVIDPSDTYPNYNKKFKGRVTMTVVVSTSTAYMELRSLRSDDTAVYYCARNGDSDYYSGMDYWGQGTTVTVSSFNRGEC
notes: construct 12 = Hu3G8VL-Hu2B6VH(G44C)-FNRGEC; About 150 kDa on the blot
binding result (soluble CD16A (sCD16A) [1]): binds

More lines, now with the values ahead:

binding result (soluble CD16A (sCD16A) [1]): binds
B3: diabody of constructs 1 and 10 (pMGX0669+pMGX0718), N-terminal Fc (bispecific antibody)
chain 1: EIVLTQSPDFQSVTPKEKVTFTCRTSQSIGTNIHWYQQKPDQSPKLLIKEVSESISGVPSRFSGSGSGTDFTLTINSLEAEDAATYYCQQSNTWPFTFGGGTKVEIKGGGSGGGGQVTLRESGPALVKPTQTLTLTCTFSGFSLSTSGMGVGWIRQPPGKALEWLAHIWWDDDKRYNPALKSRLTISKDTSKNQVVLTMTNMDPVDTATYYCAQINPAWFAYWGQGTLVTVSSLGGC
chain 2: not shown
notes: also called constructs 10 and 1; constructs 10+1; copies: 2 + 2

binding result (soluble CD16A (sCD16A) [3]): binds
B5: tetrameric IgG-like diabody of constructs 7 and 8 (pMGX0677+pMGX0678) (bispecific antibody)
chain 1: EIVLTQSPDFQSVTPKEKVTFTCRTSQSIGTNIHWYQQKPDQSPKLLIKEVSESISGVPSRFSGSGSGTDFTLTINSLEAEDAATYYCQQSNTWPFTFGGGTKVEIKGGGSGGGGQVTLRESGPALVKPTQTLTLTCTFSGFSLSTSGMGVGWIRQPPGKALEWLAHIWWDDDKRYNPALKSRLTISKDTSKNQVVLTMTNMDPVDTATYYCAQINPAWFAYWGQGTLVTVSSLGGCFNRGEC
chain 2: not shown
notes: heavier chain construct 8 (hu3G8VL-hu2B6VH-LGGC-hinge/Fc of human IgG1, A215V); Tested as normalized conditioned medium
